Results on ten molecules are retold here after paper PMC9092470, “Understanding p300-transcription factor interactions using sequence variation and hybridization†” (RSC Chemical Biology, 2022).

“And” between values parts separate entries of the source, which are not always exact repeats. Equal entries are not always repeated.

Assay [1] addresses T1, p300 (CH1 domain, residues 330–420) (Homo sapiens, UniProt Q09472).
T1 construct: GST (N, cleaved yes); made in house; host or cells: E. coli BL21 pLysS (pGEX-4T1-p300)
Put plainly: ITC of chemically synthesized HIF-1α, CITED2 and CITIF peptides binding to p300. The following applies: pH 7.5. The protocol:
Raw ITC (upper) data and fitted thermogram (lower) (40 mM sodium phosphate, pH 7.5 100 mM NaCl, 1 mM DTT buffer using 5 μM protein in the cell and 60 μM ligand in the syringe at 35 °C) error bars represent the estimated integration errors; (b) Thermodynamic signatures for each interaction.
Figure S8 (a) Sequences of the truncated CITED2 peptides and isothermal titration […]
µM peptide in the syringe. All measurements were carried out 40 mM sodium phosphate, pH 7.5 100 mM NaCl, 1 mM DTT buffer at 35°C. Error bars represent the estimated integration […]
Table S2 Thermodynamic parameters for shortened CITED2 sequences. 68% confidence intervals for the fitting are shown in brackets. Data fitted to a single binding site model, fixed 1:1 stoichiometry with incompetent protein fraction as an adjustable parameter. […]
(§1) Isothermal titration calorimetry
(§2) Prior to ITC measurement p300 CH1 was dialysed or run on S75 column in the buffer used for titration, and the same buffer was used to dissolve the pure peptides. Experiments with […]
(§3) MicroCal iTC200 instrument with 10 µM protein in the cell and 100 µM ligand in the syringe at 37°C, using 2 µl injections and 120 or 180 s spacing between injections. Experiments with the […]
(§4) instrument using 3-5 µM protein in the cell and 40-60 µM ligand in the syringe at 35°C, using 5 µl injections and 180 s spacing between injections, for 40 injections. Titrations were performed in 40 mM Na-phosphate, pH 7.5 100 mM NaCl, 1 mM DTT buffer except for GFP-HIF-1α and variants for which 25 mM Tris-HCl, 150 mM NaCl, 1mM DTT, pH 7.4 buffer was used. Data were analysed using NITPIC3 and fitted using SEDPHAT4 to a single binding site model (fixed 1:1 stoichiometry), with baseline and incompetent protein fraction as adjustable parameters. 68 % confidence intervals for the fitted values were determined using the automatic confidence interval search implemented in SEDPHAT. Figures were prepared using […]

In assay [2] the target is T1, p300 (CH1 domain, residues 330–420). Nature of the assay: ITC of expressed HIF-1α, CITED2 and CITIF peptides binding to p300. The note with it: pH 7.5. The protocol:
We hypothesized that it would be possible to enhance the affinity of HIF-1α for p300 by hybridising key regions of both CITED2 and HIF-1α (see later). We first measured the affinity of the parent peptides. A particular difficulty in comparing these peptide sequences is the different length used in different studies.[28,33,35,36] […]
data and fitted thermogram (lower) (40 mM sodium phosphate, pH 7.5 100 mM NaCl, 1 mM DTT buffer using 5 µM protein in the cell and 60 µM ligand in the syringe at 35°C); (b) Thermodynamic signatures for each interaction. […]
as §1, §2, §3, §4

The target of assay [3] is T2, p300 CH1 domain (residues 330–420) (UniProt Q09472 330-420).
T2 construct: p300 CH1 domain, residues 330–420; The cleavage of GST is said for the anisotropy control; also called p300 with the GST tag cleaved; source: recombinantly expressed as a fusion protein with GST, GST tag cleaved
Put plainly: ITC; expressed peptides (GFP tag cleaved) titrated to p300; conditions in Fig. S6 (ESI); fixed 1:1 stoichiometry. The note with it: both partners purified. For orientation: Isothermal titration calorimetry measures the heat released or taken up as one component is titrated into another.

In assay [4] the target is T3, p300 CH1 domain (residues 330-420), GST removed with thrombin (human, UniProt Q09472 330-420).
T3 construct: human p300, CH1 domain (zinc finger, TAZ type 1), residues 330-420; Thrombin-cleaved construct (expected m/z 10603.30), used on the Microcal VP ITC with synthetic partners (D1:p17); source: E. coli BL21 pLysS (pGEX-4T-1), glutathione beads, on-column thrombin cleavage, SEC
Put plainly: ITC; global fit in SEDPHAT of three titrations (HIF-1α776-826 to p300, CITED2 peptide to p300, CITED2 peptide to preformed p300/HIF-1α776-826) to a model with a ternary CITED2-HIF-1α-p300 complex; 40 mM sodium phosphate, pH 7.5, 100 mM NaCl, 1 mM DTT; 35 °C. The following applies: both partners purified.

The target of assay [5] is T2, p300 CH1 domain (residues 330–420). Put plainly: ITC; peptide in the syringe, p300 in the cell (Fig. 4: 5 μM protein, 60 μM ligand); 40 mM sodium phosphate, pH 7.5, 100 mM NaCl, 1 mM DTT, 35 °C; single-site model, fixed 1:1 stoichiometry. The following applies: both partners purified.
The target is the same in assay [6]. Put plainly: ITC; competition: CITED2 peptides titrated into the preformed p300/HIF-1α 776–826 complex (1.2–1.6 equivalents of HIF-1α); 40 mM sodium phosphate, pH 7.5, 100 mM NaCl, 1 mM DTT, 35 °C; competitive binding model; apparent. The note with it: both partners purified.

T2 sequence (Q09472 330-420): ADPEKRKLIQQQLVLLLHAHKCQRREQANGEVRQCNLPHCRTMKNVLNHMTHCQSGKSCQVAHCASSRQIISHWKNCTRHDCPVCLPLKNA
T3 sequence (Q09472 330-420): as above
T1 sequence (Q09472 330-420): as above

For the molecule “Ac-DEEVLMSLVIEMGLDRIKELPELWLGQNEFDFMTDF-NH2 [CITED224–259]”, in assay [1], the “ΔH, synthetic peptides” value was -12.4 kcal/mol and the “ΔS, synthetic peptides” value is −3.6 cal mol^−1 K^−1. Besides, in assay [2], the “ΔH, expressed peptides” value was -12.4 kcal/mol and the “ΔS, expressed peptides” value was −6.2 cal mol^−1 K^−1.
For the molecule “Ac-NVIDTDFIDEEVLMSLVIEMGLDRIKELPELWLGQNEFDFMTDFVCKQQPSRVS-NH2 [CITED216–269]”, in assay [1], the “ΔH, synthetic peptides” value is -13.2 kcal/mol and the “ΔS, synthetic peptides” value was −10.0 cal mol^−1 K^−1. Besides, in assay [2], the “ΔH, expressed peptides” value was -13.3 kcal/mol and the “ΔS, expressed peptides” value is recorded as −7.5 cal mol^−1 K^−1.

B1: HIF-1α 786–826, expressed peptide (GFP tag cleaved) (peptide)
peptide: GPGSSMDESGLPQLTSYDCEVNAPIQGSRNLLQGEELLRALDQVN
notes: four residues (Gly-Pro-Gly-Ser) remaining from the PreScission protease cleavage; Free N-terminus; source: expressed as GFP fusion protein, tag cleaved with PreScission protease
Molecule B1 came in with a dH in assay [3] of -32.7 kcal/mol.
As usually defined, the Kd is the concentration at which binding is half-saturated. Higher therefore signals lower affinity. Ac-DEEVLMSLVIEMGLDRIKELPELWLGQNEFDFMTDF-NH2 (source: synthetic peptide) [CITED2224-259 (synthetic)]: the affinity in assay [4], expressed as Kd, was 11.6 nM.

B2: CITED2 216–269, chemically synthesized peptide (peptide, UniProt Q99967 216-269, looked up)
peptide: Ac-NVIDTDFIDEEVLMSLVIEMGLDRIKELPELWLGQNEFDFMTDFVCKQQPSRVS-NH2
notes: source: synthetic peptide (chemical synthesis, see ESI)
In assay [5], B2 returned a Kd of 26.3 nM and a dH of -13.2 kcal/mol. Further, the “KD,app (competition against the preformed p300/HIF-1α 776–826 complex)” value in assay [6] was 1.1 nM.

B3: CITIF, HIF-1α-CITED2 hybrid sequence, expressed peptide (GFP tag cleaved) (peptide)
chain: GPGSDEEVLMSLVIEMGLDRIKELPQLTSYDCEVNAPIQGSRNLLQGEELLRALDQVN
As to B3, in assay [3], the dH was -18.3 kcal/mol.

B4: CITED2216-269 (synthetic) (peptide)
peptide: Ac-NVIDTDFIDEEVLMSLVIEMGLDRIKELPELWLGQNEFDFMTDFVCKQQPSRVS-NH2
notes: source: synthetic peptide
B4 came in with a Kd in assay [4] of 26.9 nM.

B5: CITED2 224–259, chemically synthesized peptide (peptide, UniProt Q99967 224-259, looked up)
peptide: Ac-DEEVLMSLVIEMGLDRIKELPELWLGQNEFDFMTDF-NH2
notes: as for B2
In assay [5], B5 yielded a Kd of 9.1 nM and a dH of -12.4 kcal/mol. In assay [6], the “KD,app (competition against the preformed p300/HIF-1α 776–826 complex)” value is 12.2 nM.

B6: HIF-1α 776–826, expressed peptide (GFP tag cleaved) (peptide)
peptide: GPGSSDLACRLLGQSMDESGLPQLTSYDCEVNAPIQGSRNLLQGEELLRALDQVN
notes: as for B1
On to B6, for which, in assay [3], binding was characterised by a dissociation constant (Kd) of 82.4 nM and the dH is -22.2 kcal/mol.

B7: HIF-1α776-826 (synthetic) (peptide)
peptide: Ac-SDLACRLLGQSMDESGLPQLTSYDCEVNAPIQGSRNLLQGEELLRALDQVN-NH2
modifications: cysteine pairing not given here
notes: source: synthetic peptide
For B7, the Kd in assay [4] was 67 nM and 48.8 nM and 52.3 nM.
